Laboratory results taken from US10689452 (UNIVERSIT T STUTTGART, dated 2020).

T1: human TNFR1-Fc fusion protein (human, UniProt P19438 29-211)
T1 construct: range 29-211; Made in stably transfected HEK293 cells; coated on ELISA plates or immobilised on QCM chips; also called huTNFR1-Fc; human TNFR-Fc; not shown: Fc part from vector pSecTagL1-Fc
T1 sequence (looked up): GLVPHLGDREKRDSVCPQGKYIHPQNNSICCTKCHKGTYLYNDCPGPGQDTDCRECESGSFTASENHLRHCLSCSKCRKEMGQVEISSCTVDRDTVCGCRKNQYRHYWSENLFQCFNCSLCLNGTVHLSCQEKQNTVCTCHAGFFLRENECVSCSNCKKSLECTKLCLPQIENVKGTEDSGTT

T2: human TNFR1 on cells (HT1080, HeLa, Kym-1) (human, UniProt P19438 30-455)
T2 sequence (looked up): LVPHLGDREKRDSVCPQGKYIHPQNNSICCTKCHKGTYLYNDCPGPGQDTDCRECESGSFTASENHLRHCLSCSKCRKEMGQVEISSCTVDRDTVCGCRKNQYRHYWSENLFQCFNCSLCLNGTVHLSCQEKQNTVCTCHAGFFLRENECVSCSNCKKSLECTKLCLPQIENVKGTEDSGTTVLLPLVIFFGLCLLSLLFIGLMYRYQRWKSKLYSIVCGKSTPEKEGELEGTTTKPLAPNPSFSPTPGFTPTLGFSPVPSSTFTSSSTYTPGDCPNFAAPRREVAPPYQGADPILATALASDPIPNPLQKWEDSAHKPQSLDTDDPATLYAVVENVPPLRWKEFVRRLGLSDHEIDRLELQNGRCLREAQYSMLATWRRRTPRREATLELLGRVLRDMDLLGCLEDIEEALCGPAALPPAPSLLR

B1: scFvIG11 (scFv, V domains shown)
VH: QVQLVQSGAEVKKPGSSVKVSCKASGYTFTDFYINWVRQAPGQGLEWIGEIVPTQGEAKYNDKFKARVTITADKSTSTAYMELSSLRSEDTAVYYCARWDFLDYWGQGTTVTVSS
VL: DIVMTQSPLSLPVTPGEPASISCRSSQSLLHSNGNTYLHWYLQKPGQSPQLLIYTVSNRFSGVPDRFSGSGSGTDFTLKISRVEAEDVGVYYCSQSTHVPYTFGGGTKVEIK
B2: H398 (antibody, V domains shown)
VH: QVQLQESGAELARPGASVKLSCKASGYTFTDFYINWVKQRTGQGLEWIGEIYPYSGHAYYNEKFKAKATLTADKSSSTAFMQLNSLTSEDSAVYFCVRWDFLDYWGQGTTLTVSS
VL: DIVMTQSPLSLPVSLGDQASISCRSSQSLLHSNGNTYLHWYVQKPGQSPKLLIYTVSNRFSGVPDRFSGSGSGTDFTLKISRVEAEDLGVYFCSQSTHVPYTFGGGTKLEIK
B3: IgG13.7half (antibody, V domains shown)
VH: HVQLVQSGAEVKKPGSSVKVSCKASGYTFTDFYINWVRQAPGQGLEWIGEIVPSQGEAKYNDKFKARVTITADKSTSTAYMELSSLRSEDTAVYYCARWDFLDYWGQGTTVTVSS
VL: DVQMTQSPSSLSASVGDRVTITCRSSQSLLHSNGNTYLHWYQQKPGKAPKLLIYTVSNRFSGVPSRFSGSGSGTDFTLTISSLQPEDFATYYCSQSTHVPYTFGGGTKVEIKR
notes: Monovalent half IgG1
B4: scFvT12B (scFv, V domains shown)
VH: HVQLVQSGAEVKKPGSSVKVSCKASGYTFTDFYINWVRQAPGQGLEWIGEIVPSQGEAKYNDKFKARVTITADKSTSTAYMELSSLRSEDTAVYYCARWDFLDYWGQGTTVTVSS
VL: DIVMTQSPLSLPVTPGEPASISCRSSQSLLHSNGNTYLHWYLQKPGQSPQLLIYTVSNRFSGVPDRFSGSGSGTDFTLKISRVEAEDVGVYYCSQGTHVPYTFGGGTKVEIK
B5: scFvIZI06.1 (scFv, V domains shown)
VH: QVQLVQSGAEVKKPGSSVKVSCKASGYTFTDFYINWVRQAPGQGLEWIGEIYPYSGHAYYNEKFKARVTITADKSTSTAYMELSSLRSEDTAVYYCARWDFLDYWGQGTTVTVSS
VL: DIVMTQSPLSLPVTPGEPASISCRSSQSLLHSNGNTYLHWYLQKPGQSPQLLIYTVSNRFSGVPDRFSGSGSGTDFTLKISRVEAEDVGVYYCSQSTHVPYTFGGGTKVEIK
notes: Made in the periplasm of E. coli TG1; also called ATROSAB scFv
B6: Fab13.7-MSA (Fab)
heavy: HVQLVQSGAEVKKPGSSVKVSCKASGYTFTDFYINWVRQAPGQGLEWIGEIVPSQGEAKYNDKFKARVTITADKSTSTAYMELSSLRSEDTAVYYCARWDFLDYWGQGTTVTVSSASTKGPSVFPLAPSSKSTSGGTAALGCLVKDYFPEPVTVSWNSGALTSGVHTFPAVLQSSGLYSLSSVVTVPSSSLGTQTYICNVNHKPSNTKVDKKVEPKSCGGGGSGGGGSSLEAHKSEIAHRYNDLGEQHFKGLVLIAFSQYLQKCSYDEHAKLVQEVTDFAKTCVADESAANCDKSLHTLFGDKLCAIPNLRENYGELADCCTKQEPERNECFLQHKDDNPSLPPFERPEAEAMCTSFKENPTTFMGHYLHEVARRHPYFYAPELLYYAEQYNEILTQCCAEADKESCLTPKLDGVKEKALVSSVRQRMKCSSMQKFGERAFKAWAVARLSQTFPNADFAEITKLATDLTKVNKECCHGDLLECADDRAELAKYMCENQATISSKLQTCCDKPLLKKAHCLSEVEHDTMPADLPAIAADFVEDQEVCKNYAEAKDVFLGTFLYEYSRRHPDYSVSLLLRLAKKYEATLEKCCAEANPPACYGTVLAEFQPLVEEPKNLVKTNCDLYEKLGEYGFQNAILVRYTQKAPQVSTPTLVEAARNLGRVGTKCCTLPEDQRLPCVEDYLSAILNRVCLLHEKTPVSEHVTKCCSGSLVERRPCFSALTVDETYVPKEFKAETFTFHSDICTLPEKEKQIKKQTALAELVKHKPKATAEQLKTVMDDFAQFLDTCCKAADKDTCFSTEGPNLVGGAAAHHHHHH
light: DVQMTQSPSSLSASVGDRVTITCRSSQSLLHSNGNTYLHWYQQKPGKAPKLLIYTVSNRFSGVPSRFSGSGSGTDFTLTISSLQPEDFATYYCSQSTHVPYTFGGGTKVEIKRTVAAPSVFIFPPSDEQLKSGTASVVCLLNNFYPREAKVQWKVDNALQSGNSQESVTEQDSKDSTYSLSSTLTLSKADYEKHKVYACEVTHQGLSSPVTKSFNRGEC
notes: also called Fab13.7 MSA fusion protein

Columns and labels:
[1] = molecular target: T1, human TNFR1-Fc fusion protein; test: ELISA, human TNFR1-Fc
[2] = molecular target: T2, human TNFR1 on cells (HT1080, HeLa, …); test: cell-based or functional assay
[3] = molecular target: T1, human TNFR1-Fc fusion protein; test: QCM, human TNFR1-Fc immobilised
Description: (§1) Real-time binding dynamics in protein-protein interactions were determined by quartz crystal microbalance measurements (A-100 C-Fast or Cell-200 C-Fast, Attana, Stockholm, Sweden). One of the binding partners (ligand, e.g. TNFR1-Fc) was chemically immobilized on a carboxyl sensor chip according to the manufacturer's protocol at different densities (nearly 200 Hz in the case of saturating conditions to confirm previously published results and 50-100 Hz, in particular at about 50 Hz, to establish conditions of lower receptor density, better resembling the situation on the cellular surface). Binding experiments were performed with samples (analyte) diluted in PBST (PBS, 0.1% Tween 20) at pH 7.4 with a flow rate of 25 µl/min at 37° C. The chip was regenerated with 25 µl 5 mM NaOH or 20 mM glycine, pH 2.0. Every third measurement, an injection of running buffer was measured which was subtracted from the binding curve. Data were collected using the software provided by Attana for the particular device and analyzed by Attaché Office Evaluation software (Attana, Stockholm, Sweden) and TraceDrawe (ridgview instruments, Vange, Sweden).

[4] = molecular target: T1, human TNFR1-Fc fusion protein; test: QCM, soluble scFv, moderate receptor density
Description: as §1

[5] = molecular target: T1, human TNFR1-Fc fusion protein; test: QCM
[6] = molecular target: T2, human TNFR1 on cells (HT1080, HeLa, …); test: cell-based or functional assay; remark: listed apart in the source
[7] = molecular target: T1, human TNFR1-Fc fusion protein; test: QCM, human TNFR1-Fc immobilised, high receptor density (195 Hz)
Description: (§2) FIG. 1. […] Applied were triplicates of five concentrations between 3.9 nM and 62.5 nM.
as §1

[8] = molecular target: T1, human TNFR1-Fc fusion protein; test: standard ELISA, human TNFR1-Fc
Description: as §2
Microtiter plates were coated with 100 µl of the indicated protein (1 µg/ml in PBS, see Table 3.3) and incubated at 4° C. over night. The residual binding sites were blocked with 2% MPBS (skim milk in PBS, 200 µl per well) at room temperature for 2 hours and subsequently washed twice with PBS. 100 µl of the samples diluted in 2% MPBS were incubated at room temperature for 1 hour prior to the last incubation step with 100 µl of the HRP conjugated detection antibodies in 2% MPBS. In the case of competition experiments, both analyzed protein samples were prepared individually (either titrated or diluted to a single concentration) and mixed before they were applied to the plate. Bound protein was detected with 100 µl TMB substrate solution, the HRP-reaction was stopped by the addition of 50 µl 1 M H2SO4 and the absorption at the wavelength of 450 nm was measured using the Infinite microtiter plate reader (TECAN, Maennedorf, Switzerland). Between each incubation step and in advance of the detection, the plates were washed three times with PBST and twice with PBS.

[9] = molecular target: T1, human TNFR1-Fc fusion protein; test: QCM, human TNFR1-Fc immobilised, low receptor density (48 Hz)
Description: as §1

[10] = molecular target: T2, human TNFR1 on cells (HT1080, HeLa, …); test: cell-based or functional assay; remark: listed apart in the source
[11] = molecular target: T2, human TNFR1 on cells (HT1080, HeLa, …); test: cell-based or functional assay; remark: listed apart in the source
[12] = molecular target: T1, human TNFR1-Fc fusion protein; test: ELISA, immobilised human TNFR1-Fc
[13] = molecular target: T1, human TNFR1-Fc fusion protein; test: ELISA, immobilised human TNFR1-Fc; remark: listed apart in the source
[14] = molecular target: T1, human TNFR1-Fc fusion protein; test: phage ELISA on human TNFR1
[15] = molecular target: T2, human TNFR1 on cells (HT1080, HeLa, …); test: cell-based or functional assay; remark: listed apart in the source
[16] = molecular target: T1, human TNFR1-Fc fusion protein; test: ELISA, human TNFR1-Fc; remark: listed apart in the source

Binder | EC50 [1] [nM] | IC50 (nM), approximated; inhibition of TNF (0.1 nM) induced IL-8 release [2] [nM] | Kd [3] [nM] | koff [3] [s⁻¹] | kon [3] [M⁻¹ s⁻¹] | relative koff (compared with scFvIZI06.1) [4] | koff [5] [s⁻¹] | IL-8 Inhibition IC50 [nM] (HT1080 cells, 0.1 nM soluble TNF) [10] | fold higher IC50 (IL-8 release inhibition) compared to Fab13.7 [11] [fold] | EC50 [12] [nM] | fold increased EC50 compared to unmodified Fab13.7 [13] [fold] | relative EC50 (compared with scFvIZI06.1) [14] | IC50 (nM), inhibition of TNF-induced IL-8 release from HT1080 cells [15] [nM] | EC50 [16] [nM] | also measured
B1 | 2.6 | ~300 | 24.9 | 0.0036 | 150000 | 0.31 relative to scFvIZI06.1 | 0.00026 |  |  |  |  |  |  |  | fold KD compared with scFvIZI06.1 [5]: 2 fold; fold reduced koff compared with scFvIZI06.1 [5]: ~3 fold
B2 |  |  |  |  |  |  |  |  |  |  |  |  |  |  | IC50, LT [nM] (inhibition of IL-8 release from HT1080 cells induced by LTα) [6]: 0.65 nM; IC50, TNF [nM] (inhibition of IL-8 release from HT1080 cells induced by 0.1 nM TNF) [6]: 4.1 nM; Kd [7]: 0.23 nM; EC50 [8]: 0.15 nM; Kd [9]: 1.6 nM; koff [9]: 0.00062 s⁻¹
B3 |  |  |  |  |  |  |  | 63.3 | 1.8 | 0.8 | 1.9 |  |  |  | 
B4 | 2 | ~45 |  |  |  | 0.25 relative to scFvIZI06.1 |  |  |  |  |  | 0.017 relative to scFvIZI06.1 | 309 | 1.14 | Improved (factor of EC50 regarding scFvIG11) [1]: 1.3 fold; Improved (factor of IC50 regarding scFvIG11) [2]: ~6.7 fold; Improved (factor of KD regarding scFvIG11) [3]: 4.1 fold; Improved (factor of koff regarding scFvIG11) [3]: 2 fold; Improved (factor of kon regarding scFvIG11) [3]: 2.1 fold
B5 | 3.8 | ~200 | 28.9 | 0.014 | 500000 | 1 relative to scFvIZI06.1 | 0.00076 |  |  |  |  | 1 relative to scFvIZI06.1 | 932 | 3.07 | 
B6 |  |  |  |  |  |  |  | 65.5 | 1.9 | 0.7 | 1.7 |  |  |  | 
